Experimental data published in US6939707B2, “Isolated nucleic acid molecules which encode GAGE genes and uses thereof” (Ludwig Institute for Cancer Research, priority 1993, dated 2005).

How the values were obtained:
CTL 22/23 = test: TNF production by CTL 22/23 on COS-7 cells cotransfected with HLA-A29 and GAGE cDNA; type: cell-based, human; settings: COS-7 cells transfected with HLA-A29 and the cDNA, 24 hours (FIG. 7)
Experimental: (§1) Following this change in medium, COS cells were incubated for 24-48 hours at 37° C. Medium was then discarded, and 1000-3000 cells of CTL clone 76/6 were added, in 100 μl of Iscove's medium containing 10% pooled human serum supplemented with 20-30 U/ml of recombinant IL-2. Supernatant was removed after 24 hours, and TNF content was determined in an assay on WEHI cells, as described by Traversari et al., Immunogenetics 35: 145-152 (1992), the disclosure of which is incorporated by reference.
Once positive HLA-A29 clones were isolated, these were transfected into COS-7 using the DEAE-dextran chloroquine method out supra. In brief, 1.5×10^4 COS-7 cells were treated with 50 ng of plasmid pcDNA-I/Amp containing HLA-A29, and 100 ng of cDNA containing cDNA for one of the GAGE sequences mentioned supra, or one of the prior art MAGE or BAGE sequences in plasmid pcDNAα-I/Amp or pcDSR-α, respectively. The transfectants were then incubated for 24 hours at 37° C.
The transfectants were then tested for their ability to stimulate TNF production by CTLs, using the assay explained at the end of example, 4, supra.

CTL 76/6 = test: TNF release / recognition by CTL 76/6 of COS cells cotransfected with GAGE cDNA and HLA-Cw6 cDNA; type: cell-based, human; settings: COS cells transfected with cDNA together with HLA-Cw6 cDNA (FIG. 2, FIG. 6)
Experimental: Following preparation of the library described in Example 3, the cDNA was transfected into eukaryotic cells. The transfections, described herein, were carried out in duplicate. Samples of COS-7 cells were seeded, at 15,000 cells/well into tissue culture flat bottom microwells, in Dulbecco's modified Eagles Medium (“DMEM”) supplemented with 10% fetal calf serum. The cells were incubated overnight at 37° C., medium was removed and then replaced by 50 μl/well of DMEM medium containing 10% Nu serum, 400 μg/ml DEAE-dextran, and 100 μM chloroquine, plus 100 ng of the plasmids. […] As a result, cDNA for each of the HLA molecules which could present the antigen (A1, B37, Cw6) was used, separately, to cotransfect the cells. Specifically, one of 28 ng of the gene encoding HLA-A1 cloned into pCD-SRα, 50 ng of cDNA for HLA-B37 in pcDNA 1/Amp, or 75 ng of cDNA for HLA-Cw6 in pcDNAI-Amp, using the same protocols as were used for transfeclion with the library.
Transfection was carried out in duplicate wells, but only 500 pools of the HLA-Cw6 transfectants could be tested in single wells. Following four hours of incubation at 37° C., the medium was removed, and replaced by 50 μl of PBS containing 10% DMSO. This medium was removed after two minutes and replaced by 200 μl of DMEM supplemented with 10% FCS.
as §1
The bacteria of the selected pool were cloned, and 600 clones were tested. Plasmid DNA was extracted therefrom, transfected into a new sample of COS cells in the same manner as described supra, and the cells were again tested for stimulation of CTL clone 76/6. Ninety-four positive clones were found. One of these, referred to as cDNA clone 2D6, was tested further. In a comparative test COS cells were transfected with cDNA clone 2D6 and the HLA-Cw6 cDNA, HLA-Cw6 cDNA alone, or cDNA 2D6 alone. Control cell lines MZ2-MEL F and MZ2-MEL F^+ were also used. TNF release into CTL supernatant was measured by testing it on WEHI cells, as referred to supra. The number of surviving WEHI cells was measured by optical density after incubation of the cells with MTT.
To assess whether the change at position 2 affected the antigenicity of the peptide, cDNA of the 6 GAGE cDNAs were individually transfected into COS cells together with the cDNA of HLA-Cw6, and the transfectants were tested for recognition by CTL 76/6 as described, supra. Only GAGE-1 and GAGE-2 transfected cells were recognized, showing that the modified peptide encoded by GAGE-3, 4, 5 and 6 was not antigenic in the context of this experiment.

B1: GAGE-4: cDNA highly related to GAGE, from MZ2-MEL.43 library (nucleic acid)
DNA: CGCCAGGGAGCTGTGAGGCAGTGCTGTGTGGTTCCTGCCGTCCGGACTCTTTTTCCTCTACTGAGATTCATCTGTGTGAAATATGAGTTGGCGAGGAAGATCGACCTATTATTGGCCTAGACCAAGGCGCTATGTACAGCCTCCTGAAATGATTGGGCCTATGCGGCCCGAGCAGTTCAGTGATGAAGTGGAACCAGCAACACCTGAAGAAGGGGAACCAGCAACTCAACGTCAGGATCCTGCAGCTGCTCAGGAGGGAGAGGATGAGGGAGCATCTGCAGGTCAAGGGCCGAAGCCTGAAGCTGATAGCCAGGAACAGGGTCACCCACAGACTGGGTGTGAGTGTGAAGATGGTCCTGATGGGCAGGAGATGGACCCGCCAAATCCAGAGGAGGTGAAAACGCCTGAAGAAGGTGAAAAGCAATCACAGTGTTAAAAGAAGGCACGTTGAAATGATGCAGGCTGCTCCTATGTTGGAAATTTGTTCATTAAAATTCTCCCAATAAAGCTTTACAGCCTTCTGCAAAAAAAAAAAAAAAA
CTL 22/23
  stimulation of TNF production by CTL clone 22/23: high levels of TNF production
CTL 76/6
  recognition by CTL 76/6 (TNF release): not antigenic

B2: GAGE-3: cDNA highly related to GAGE, from MZ2-MEL.43 library (nucleic acid)
DNA: CTCATATTTCACACAGATGAGTTGGCGAGGAAGATCGACCTATTATTGGTCTAGGCCAATAATAGGTCGATCTTCCTCGCCAACTCATATTTCACACAGATGAATCTCAGTAGAGGAAAATCGACCTATTATTGGCCTAGACCAAGGCGCTATGTACAGCCTCCTGAAGTGATTGGGCCTATGCGGCCCGAGCAGTTCAGTGATGAAGTGGAACCAGCAACACCTGAAGAAGGGGAACCAGCAACTCAACGTCAGGATCCTGCAGCTGCTCAGGAGGGAGAGGATGAGGGAGCATCTGCAGGTCAAGGGCCGAAGCCTGAAGCTGATAGCCAGGAACAGGGTCACCCACAGACTGGGTGTGAGTGTGAAGATGGTCCTGATGGGCAGGAGATGGACCCGCCAAATCCAGAGGAGGTGAAAACGCCTGAAGAAGGTGAAAAGCAATCACAGTGTTAAAAGAAGGCACGTTGAAATGATGCAGGCTGCTCCTATGTTGGAAATTTGTTCATTAAAATTCTCCCAATAAAGCTTTACAGCCTTCTGCAAAGAAAAAAAAAAAA
CTL 22/23
  stimulation of TNF production by CTL clone 22/23: high levels of TNF production
CTL 76/6
  recognition by CTL 76/6 (TNF release): not antigenic

B3: GAGE-5: cDNA highly related to GAGE, from MZ2-MEL.43 library (nucleic acid)
DNA: AGCTGTGAGGCAGTGCTGTGTGGTTCCTGCCGTCCGGACTCTTTTTCCTCTACTGAGATTCATCTGTGTGAAATATGAGTTGGCGAGGAAGATCGACCTATTATTGGCCTAGACCAAGGCGCTATGTACAGCCTCCTGAAGTGATTGGGCCTATGCGGCCCGAGCAGTTCAGTGATGAAGTGGAACCAGCAACACCTGAAGAAGGGGAACCAGCAACTCAACGTCAGGATCCTGCAGCTGCTCAGGAGGGAGAGGATGAGGGAGCATCTGCAGGTCAAGGGCCGAAGCCTGAAGCTGATAGCCAGGAACAGGGTCACCCACAGACTGGGTGTGAGTGTGAAGATGGTCCTGATGGGCAGGAGATGGACCCGCCAAATCCAGAGGAGGTGAAAACGCCTGAAGAAGGTGAAAAGCAATCACAGTGTTAAAAGAAGGCACGTTGAAATGATGCAGGCTGCTCCTATGTTGGAAATTTGTTCATTAAAATTCTCCCAATAAAGCTTTACAGCCTTCTGCAAAGAAAAAAAAAAAA
CTL 22/23
  stimulation of TNF production by CTL clone 22/23: high levels of TNF production
CTL 76/6
  recognition by CTL 76/6 (TNF release): not antigenic
